Key:
[1] = Determination of the isoelectric point by isoelectric focusing; type: physicochemical; conditions: Ampholine PAGplate pH 3.5-9.5, located by thrombin inhibition assay
Experimental: The determination was carried out with an LKB Multiphor 2117 (horizontal system) and an LKB 2103 power supply. Precast gels were employed (Pharmacia Ampholine PAGplate pH 3.5-9.5). The standard proteins employed were amyloglucosidase, pH 3.5; soybean trypsin inhibitor, pH 4.55; β-lactoglobulin A, pH 5.2; bovine carbonic anhydrase, pH 5.85; human carbonic anhydrase, pH 6.55; horse myoglobin, pH 6.85 and 7.35; lentil lectin, pH 8.15, 8.45, 8.65 and trypsinogen, pH 9.3.
Focusing conditions: 1500 volts, 30 watts. Buffers:
cathode 1M sodium hydroxide solution
The plates were prefocused for 30 minutes to produce a pH gradient. The samples were loaded onto filter disks which lay on the gel. Focusing was continued for 30 minutes, the filter disks were removed and, after a further 30 minutes, focusing was stopped. The gels were immediately cut into 2 mm slices and transferred into distilled water. The protein eluted out of the gel slices overnight. The location of the thrombin inhibitor was determined by a thrombin inhibition assay. The pH can also be determined directly using a pH electrode.

Thrombin [2] = test: Determination of the inhibition of thrombin by the inhibitor (Chromozym TH optical assay); type: biochemical; conditions: in vitro enzyme assay
Experimental: The purification of the protein can be monitored by a thrombin activity assay. It is expedient to use an optical assay in which a chromogenic substrate, for example Chromozym T, is converted by thrombin. The fractions containing the novel protein can be identified by their thrombin-inhibiting action on addition to this optical assay.
Thrombin (Boehringer Mannheim) was dissolved to a final concentration of 25 mU/ml in phosphate-buffered saline (PBS) ([…], […], 0.144 g/l sodium phosphate, 0.2 g/l potassium phosphate, pH 7.5).
Chromozym TH (Boehringer Mannheim) was dissolved in 20 ml of H2 O per vial.
50 μl of thrombin solution and 100 μl of Chromozym plus 25 μl of sample or buffer were placed in the wells of a microtiter plate. The absorption at 405 nm was measured at 37° C. immediately thereafter at time 0 and after 30 minutes.
When the sample was deeply colored another control without thrombin was treated as described above.
The activity of thrombin liberates a dye which absorbs at 405 nm from the chromogenic substrate. Inhibition of the thrombin by a thrombin inhibitor is evident from a smaller increase in the absorption at 405 nm and was quantified using a calibration plot.

Thrombin [3] = test: Binding to affinity column with immobilized thrombin; conditions: immobilized thrombin on Sepharose
Experimental: The combined active fractions were loaded onto an affinity column with immobilized thrombin (diameter 1.5 cm, height 6.5 cm, volume 11.5 ml, 60 ml/h). The column was prepared as in Example 3.
The column was equilibrated with 20 mM sodium phosphate pH 7.5. After the protein solution had been loaded onto the column it was washed with 10 column volumes of equilibration buffer until the absorption at 280 nm decreased to zero.
It was then washed with 0.5M NaCl, 20 mM sodium phosphate buffer pH 7.5. This removed non-specifically adsorbed material.
Protein specifically bound to thrombin was eluted with 0.1M glycine, 0.5M NaCl pH 2.8. The column was then immediately readjusted to pH 7.5 with phosphate buffer.
2 g of CNBr-activated Sepharose (Pharmacia) were washed with 200 ml of 1 mM HCl on a suction funnel. The gel was taken up in 100 mM NaHCO3, 500 mM NaCl pH 8.3 and immediately mixed with 10,000 units of thrombin (Sigma) in 100 mM NaHCO3, 500 mM NaCl, pH 8.3.
The solution was gently shaken at 4° C. for 24 hours.
The gel material was allowed to settle and then washed with 100 mM NaHCO3, 500 mM NaCl, pH 8.3. The Sepharose was then incubated with 100 mM NaHCO3, 500 mM NaCl, 1M ethanolamine pH 8.3 for 2 hours.
To remove unbound thrombin, before use the gel material is washed once more in the column with 20 column volumes of PBS pH 7.4.

## hirudin [reference compound]
[1]
  isoelectric point: ≤ 3.5 pH

B1: novel protein: Thrombin-inhibitory protein isolated from assassin bugs (Rhodnius prolixus); contains 103 amino acids of SEQ ID NO: 3, N-terminus SEQ ID NO: 1 (protein)
chain: EGGEPCACPHALHRVCGSDGETYSNPCTLNCAKFNGKPELVKVHDGPCEPDEDEDVCQECDGDEYKPVCGSDDITYDNNCRLECASISSSPGVELKHEGPCRT
[1]
  isoelectric point: 3.7-4.7 pH
[1]; listed as novel inhibitor
  isoelectric point: 4.2±0.5 pH
Thrombin [2]
  inhibition of the biological activity of thrombin: inhibits the biological activity of thrombin
Thrombin [3]
  binding to thrombin affinity column: binds specifically to a thrombin affinity column

From patent US5523287A, “Thrombin-inhibitory protein from assassin bugs” (BASF Aktiengesellschaft, priority 1991, dated 1996)
